Assay results from the DeepSol protein solubility set.

Experiment: soluble on expression in E. coli; label from the status in PepcDB or PDB records
In the case of “MQDPRHPQGLPLSPGLPKRQRQDRTIYNWKQQEVLENHFKEEQYPDYDTRQELAEMLNLREYQVQVWFKNRRAKRSREQWFQKQLQQLQKHPQQQHPQQQHPQQQLQQQQPQQQPQQQQPQQQQLHQQPQ”, the “soluble on expression in E. coli” value is reported as “soluble”. In the case of “MGSDKIHHHHHHMALEPQIKSAPTPVILIVEPYGGSIRQQNPNLPMVFWDDAALTRGDGIFETLLIRDGHACNVRRHGERFKASAALLGLPEPILEDWEKATQMGIESWYSHPNAGEASCTWTLSRGRSSTGLASGWLTITPVSSDKLAQREHGVSVMTSSRGYSIDTGLPGIGKATRGELSKVERTPAPWLTVGAKTLAYAANMAALRYAKSNGFDDVIFTDGDRVLEGATSTVVSFKGDKIRTPSPGGDILPGTTQAALFAHATEKGWRCKEKDLSIDDLFGADSVWLVSSVRGPVRVTRLDGHKLRKPDNEKEIKALITKALG”, the “soluble on expression in E. coli” value is reported as “not soluble”. For “MGSDKIHHHHHHMRKYSQRHIPVMVREVIEFLKPEDEKIILDCTVGEGGHSRAILEHCPGCRIIGIDVDSEVLRIAEEKLKEFSDRVSLFKVSYREADFLLKTLGIEKVDGILMDLGVSTYQLKGENRGFTFEREEPLDMRMDLESEVTAQKVLNELPEEELARIIFEYGEEKRFARRIARKIVENRPLNTTLDLVKAVREALPSYEIRRRKRHFATKTFQAIRIYVNRELENLKEFLKKAEDLLNPGGRIVVISFHSLEDRIVKETFRNSKKLRILTEKPVRPSEEEIRENPRARSGRLRAAERIEEGGD”, the “soluble on expression in E. coli” value was “not soluble”. For “MGSDKIHHHHHHVSEALLEQAVSDVMPTKLAIIMRGLPGSGKSYWVEQFITSQGIEQAIHIRQHGLFSTDRYFYQQGQYRFNPQKIGQYHQANLTAFIQALARKEPIVICDNTNIAKWEFMAYEAAAKALGYQVKVVLVGQPDNDQHQQLCAQRNQHQVSLAHIQKMAQLFEE”, the “soluble on expression in E. coli” value was “not soluble”. For “LTRFSAGYGSDSMLEASADIGRRFGPDDSVGIRINAAQRGGETAIDGERTRTTVFALGLDWRGERARLSADIGYQDNRLKRARPNVTLAGDAAKVPGAPDAGSNYAQPWSYSNERDVFGTLRGEYDFNDRITGWAAYGMRQSKEENSLANLNGVNGAGQGKFYRFDNAREDTVNTGEIGLRAKARTGPVGHELVASASYFDLEKKNAYVMDFFNQFDTSIYDPVSYAKPAISSTAFRGNDMDDPAKQGVIRLASYALGDTMSFFDDKVLLTAGIRHQRLYQRDYSYDTGIGGTPYEQSHNSPAAGLVVRVTPQVSLYANYIEALSAGDTAPQTANGLPVVNHGESLAPYVSKQKEVGVKFEHDGLGGGLALFSTDKPRGFVGDDQVFRASGKDRHRGVELTTYGELTRSVRVLGGLTWLDAKQLSTGNAATDGKRVIGVPRFQANLGVEWDIPGVQGLTVDGRVVYTGSSYADAANTLEVPGWTRLDAGLRYMTDIGGHLVTWRARVENIANRDYWSSVGGYPGNGYLVLGGPRTFTLSASMEF”, the “soluble on expression in E. coli” value was “not soluble”. With “MAHHHHHHMVLITSNCARVAAFTRKAACSGALCDRHRCISGGGRGDLFTRHAGAFKPPAFGVLRGLTHSSQTTHPQTGQLQARKRIQHAMHDRTLSGSGHHRTAVATWSYLLHSLRQNVEQAVPDALYEKLLTDEVPLTPAESRQLADAHRLLRFELQKRIGLLEDSLADAALPYLLQWPALFQRAWLRLPMDQGRASVTEANHDAVVPAPPSFVHAPAALPVTEWAPTLSPASPPACSNGLIGRGALVPRLAQLTRHVIRCVEEDLGRLEHVSEPREDGVPRSRRQVALEAAWRAQWASLLTWHAGVSYGMG” the “soluble on expression in E. coli” value was “soluble”. For “MDTQQIDVMVADASHEVYVDTILETIRNAAAVRGTGIAERTHEYVATKMKEGKAIIALCGDTFAGFTYIESWGNKQYVATSGLIVHPDFRGLGLAKRIKQASFQLARLRWPKAKIFSLTSGAAVMKMNTELGYVPVTFNELTDDEAFWKGCEGCTNHDILAAKNRKFCICTAMLYDPTDPRNIKKEQERNNI”, the “soluble on expression in E. coli” value was “not soluble”. For “MKVSQVFISAISVFGLATSVNAQNASNTTSNAAPALHAQNGQLLNAGVVGAAVGGALAFLI”, the “soluble on expression in E. coli” value was “soluble”. In the case of “MYFPIVALIGRYQDTGLDAPLTALAQMLTQAGRRVLVEAETARNAGVSGYPVADWDEIGRTATLAVVMGGDGTVLGAARHLAPYGVPLIGINHGRLGFITDIPLQDAHDALGRVLEGNYQAEDRMLLQGGVWRGEQQMYSASAVNDVVLNRAGRGGMIEVRVELDGAFMYTQRADGLIIATPTGSTAYSLSANGPILHPGMNAMVLVPVAPQTLSNRPIVIPDSGVLNMTLTAMGRVEIGASVHFDMQTWSDLQPGDRITVQRAPHTIRFVHPEGYSFFSTLRRKLHWNLMPQATDNLELEHHHHHH”, the “soluble on expression in E. coli” value is reported as “soluble”. In the case of “MSGSTESKKQPRRRFIGRKSGNSNNDKLTTVAENGNEIIHKQKSRIALGRSVNHVPEDILNDKELNEAIKLLPSNYNFEIHKTVWNIRKYNAKRIALQMPEGLLIYSLIISDILEQFCGVETLVMGDVSYGACCIDDFTARALDCDFIVHYAHSCLVPIDVTKIKVLYVFVTINIQEDHIIKTLQKNFPKGSRIATFGTIQFNPAVHSVRDKLLNDEEHMLYIIPPQIKPLSRGEVLGCTSERLDKEQYDAMVFIGDGRFHLESAMIHNPEIPAFKYDPYNRKFTREGYDQKQLVEVRAEAIEVARKGKVFGLILGALGRQGNLNTVKNLEKNLIAAGKTVVKIILSEVFPQKLAMFDQIDVFVQVACPRLSIDWGYAFNKPLLTPYEASVLLKKDVMFSEKYYPMDYYEAKGYGRGETPKHAIE”, the “soluble on expression in E. coli” value is reported as “soluble”. For “SEFKVTVCFGRTRVDVPCGDGRMKVFSLIQQAVTRYRKAVAKDPNYWIQVHRLEHGDGGILDLDDILCDVADDKDRLVAVFDEQD”, the “soluble on expression in E. coli” value was “soluble”. For “MSLNDLLVGLLLPEKENTRYEQFDYPFFKKKVGELTRDEGIVKYANAEASATKQADQMQQMIEDKVDVIVLDAVDAHAIADGVQKAKDAGIPVIAYDRLAEGPIDAYISFDNELVGEVQGRSLIEALGGDPESSAKIVMMNGSSTDPNAKQFKAGALSELNGKVTIAQSFDTKDWKPENAEANMTEAIEKIGKKKIAGVYSANDGMAGGVIKALEDAGVTDLPPITGQDAELAAVQRIVTGEQYMSVYKSYPQEAENAAEMAVARVQGRDIQFDALARDKVDSPTHKGIPAQLVPVVALTKANIEETVVAEGHHHHHH”, the “soluble on expression in E. coli” value was “soluble”. With “MIQARSRRPLSCSLRSSSQNPIATTFLTGGKMDRIVRQILVKLLGGERSVYELIYYQDASLREFFELLNSLRDEGLIEVESGKVRITEKGREVAEKERLKFCGDVECECCEGTGLSINPYFKEILQKYSEIAKDRPETIEVYDQGFISLEGVIRRVEFVYDRGDLNGRIFVVGDDDLFGIAASLTGMPEKVAVVDIDERLINFINRVAEEYSLNVEAFVYDVQQAFPDELKRKFDVFVTDPVETIPGLKLFLSRGVSTLKGVGGAGYFGITTLEASRRKWYEIQRMIHDMGFIITDLRRRFNVYPEDEKNFFRFQEKLPIVRHLQAKVDFNWYNSTLFRIEAVKEPKPIVEGEMIIDEKVYKDDESWATPY” the “soluble on expression in E. coli” value was “not soluble”. For “QTVQSTSKGSDYIVAVTACTTGIAHTYMAEEALKKKAAEMGVGIKVETNGASGVGNKLTSSDIARAKGVIIAADKAVEMDRFDGKPLVSRPVADGIKKSEDLINIILDNKAQTY”, the “soluble on expression in E. coli” value was “not soluble”. In the case of “MGSSHHHHHHSSGLVPRGSHMASMTGGQQGRDPFESYNPEFFLYDIFLKFCLKYIDGEICHDLFLLLGKYNILPYDTSNDSIYACTNIKHLDFINPFGVAAGFDKNGVCIDSILKLGFSFIEIGTITPRGQTGNAKPRIFRDVESRSIINSCGFNNMGCDKVTENLILFRKRQEEDKLLSKHIVGVSIGKNKDTVNIVDDLKYCINKIGRYADYIAINVSSPNTPGLRDNQEAGKLKNIILSVKEEIDNLEKNNIMNDEFLWFNTTKKKPLVFVKLAPDLNQEQKKEIADVLLETNIDGMIISNTTTQINDIKSFENKKGGVSGAKLKDISTKFICEMYNYTNKQIPIIASGGIFSGLDALEKIEAGASVCQLYSCLVFNGMKSAVQIKRELNHLLYQRGYYNLKEAIGRKHSKS”, the “soluble on expression in E. coli” value is reported as “soluble”. With “MTRQSLQQAAESRRSIYSLNKNLPVGKDEVVQIVEHAVLHTPSSFNSQSARVVVLFGEEHDKVWQFVEDALRAVVPADSFEPTAQKLNLFKAGAATILFYEDQNVVKGLQEQFPAYAANFPVWADQANAMVQYAVWTTLAAVGVGANLQHYNPLPDAAIAKAWNIPENWLLRAQMVIGGIEGAAGEKTFEPVAERLKVFGA” the “soluble on expression in E. coli” value was “not soluble”. For “SYETSQHNLDAVEAVLSRLQKQTGEMAAYMVPVGYRALCVSQRESMQALRCSFVQGQSQPLLRGASSKVMLAYMPAARCEKILRYFGEDPTLDKWQSEFEKIRRHGYAVSTSEIDPGVSGISAPVMKGSKLIGAISVMAPAHRVESNKQRIILHVLQAARALPPER”, the “soluble on expression in E. coli” value was “not soluble”. With “LLQHAYNPINWYSWNDEAFKKAKEEDKPIFLSVGYSTCHWCHVMEKESFEDEEVAEIMNRNFVAIKVDKEERPDVDSVYMTVCQAMTGSGGWPMTIIMTPDKKPFFAGTYFPKYSRYNRPGVIDLLENVSEKWNTSRDILIKSGDEIIEAL” the “soluble on expression in E. coli” value was “not soluble”. In the case of “MDLNFKELAEAKKDAILKDLEELIAIDSSEDLENATEEYPVGKGPVDAMTKFLSFAKRDGFDTENFANYAGRVNFGAGDKRLGIIGHMDVVPAGEGWTRDPFKMEIDEEGRIYGRGSADDKGPSLTAYYGMLLLKEAGFKPKKKIDFVLGTNEETNWVGIDYYLKHEPTPDIVFSPDAEYPIINGEQGIFTLEFSFKNDDTKGDYVLDKFKAGIATNVTPQVTRATISGPDLEAVKLAYESFLADKELDGSFEINDESADIVLIGQGAHASAPQVGKNSATFLALFLDQYAFAGRDKNFLHFLAEVEHEDFYGKKLGIFHHDDLMGDLASSPSMFDYEHAGKASLLNNVRYPQGTDPDTMIKQVLDKFSGILDVTYNGFEEPHYVPGSDPMVQTLLKVYEKQTGKPGHEVVIGGGTYGRLFERGVAFGAQPENGPMVMHAANEFMMLDDLILSIAIYAEAIYELTKDEEL”, the “soluble on expression in E. coli” value is reported as “soluble”. In the case of “MQNPQNLIWIDLEMTGLDPDRDVIIEMATIVTDSDLNTLAEGPVIAIHQPEEILAGMDEWNTRQHGQSGLTQRVRESTVSMAEAEAQTLAFLEQWVPKRSSPICGNSICQDRRFLYRHMPRLEGYFHYRNLDVSTLKELAARWAPQVRESFKKGNTHLALDDIRESIAELRHYRDHFIKL”, the “soluble on expression in E. coli” value is reported as “not soluble”. With “MTDLNRTALPSRTDGTVEKTDTLVVGAGQAGVAMSEHLSRLGVPHLVLERNRIAEAWRSGRWDSLVANGPAWHDRFPGMEFDIDPDGFPGKDQVAAYFEAYAKRFDAPIRTGVEVRKVVRNVGRPGFTVDTSAGTIEANRVVAATGPFQRPVIPPIAPRDERIRQIHSAHYYNPQQLPEGAVLVVGAGSSGVQIADELQRAGRQVYLSVGAHDRPPRSYRNRDFCWWLGVLGEWDAEVAKPGREHVTIAVSGARGGHTVDFRALAHQGVTLVGLTESFVDGVATFRPDLAENLARGDENYLALLDAADAYIARNGLDLPEEPEARRRLPDPQCVTDPILELDLAEAGVGSIIWATGYAVDFGWLQVDAFDRDGKPRHQRGVSSEPGVYFIGLPWLSRRGSSFIWGVWHDARHVADHIAIQRKYLAYRDAAQRQEQDRASQAPQTSLQEVS” the “soluble on expression in E. coli” value was “not soluble”. With “MGSDKIHHHHHHMIDSIRVEGFRGLKELELSSLRRINVIVGRNNSGKSTLLEALSLFLGSSDPGTFGNVLHEILIWRGWYGIQTVDDLFYNGGDSFSISSTGKTLEALNSKHSLEFKLNGEPFYKIDRESIRRLASQAVLLARFSPKENFEFLTPLTFRRFGYAESLYSYAYERKVVKDSIKVLNEAYPEVEGFSPLLKEDNWVLYVETKYGVYPYYLMGEGFKSAMIISFLSSLLRDGVLLIDSAEAFHHPKSLKVMIQTLVRGSEKNNVQVFLTTHSLELLDLMLEMGRDGFVIYMKNVEGRIEVESIEFQRASELRESIGVDLRGF” the “soluble on expression in E. coli” value was “not soluble”. In the case of “MSDANPVFADYFKSWYGTYKIPGKSRTTVVRYETIYKKLNAYYGKAKLAKVTRKSYQIFMNEYGKKHAKDTVYKTNGSIRSCVRDGVADGIIQKDFTQKINLTWNLEHHHHHH”, the “soluble on expression in E. coli” value is reported as “not soluble”.
